The assay deals with T1, MAGEA4 MAGE homology domain (MHD), residues D101-V317 (human, UniProt P43358 101-317).
T1 construct: MAGEA4, human, MAGE homology domain, residues D101-V317; His6 tag removed with TEV protease; also called MAGEA4 MHD; MAGEA4-MHD; source: E. coli BL21 (DE3), purified (Ni-NTA, TEV cleavage, Superdex-75 SEC); not shown: His6, N-terminal, cleaved
T1 sequence (looked up): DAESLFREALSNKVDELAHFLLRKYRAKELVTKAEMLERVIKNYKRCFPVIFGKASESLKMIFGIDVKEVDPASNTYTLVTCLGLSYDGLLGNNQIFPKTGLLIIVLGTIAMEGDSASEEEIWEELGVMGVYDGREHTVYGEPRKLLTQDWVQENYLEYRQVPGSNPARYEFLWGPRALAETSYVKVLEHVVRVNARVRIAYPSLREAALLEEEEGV
The assay can be described thus: crystal structure; MAGEA4 MHD (10.3 mg/mL) incubated on ice with a 1:2 molar ratio of RAD18 R6BD in 20 mM Tris HCl pH 7.5, 200 mM NaCl, 1 mM TCEP; sitting drop vapor diffusion; 2.58 Å. The conditions noted are these: both partners purified.

No end group written: not given here.

B1: RAD18 RAD6-binding domain (R6BD) peptide, residues H339-G366 (peptide, UniProt Q9NS91 339-366, looked up)
peptide: HSKYRKKHKSEFQLLVDQARKGYKKIAG-NH2
notes: also called RAD18 R6BD; source: synthetic peptide (UNC Chapel Hill High-Throughput Peptide Synthesis and Array Facility)
For the molecule B1, the binding result was “binds”.

(Values after publication PMC11251181, “Crystal structure of MAGEA4 MHD-RAD18 R6BD reveals a flipped binding mode compared to AlphaFold2 prediction” (The EMBO Journal, 2024).)
